Laboratory results from paper PMC10226595 (The Plant Cell, 2023).

Target: the molecule itself
Assay: single-molecule pull-down

Protein | stoichiometry N
PHB-SDmut, YFP-tagged (PHB with mutated START domain) (natural protein) MMMVHSMSRDMMNRESPDKGLDSGKYVRYTPEQVEALERVYTECPKPSSLRRQQLIRECPILSNIEPKQIKVWFQNRRCREKQRKEAARLQTVNRKLNAMNKLLMEENDRLQKQVSNLVYENGHMKHQLHTASGTTTDNSCESVVVSGQQHQQQNPNPQHQQRDANNPAGLLSIAEEALAEFLSKATGTAVDWVQMIGMKPGPDSIGIVAISRNCSGIAARACGLVSLEPMKVAEILKDRPSWLRDCRSVDTLSVIPAGNGGTIELIYTQMYAPTTLAAAGAVVGAGYSTCLEDGSYVVCERSLTSATGGPTGPPSSNFVVAAGVPSGFLIRPCDGGGSILHIVDHVDLDAWSVPEVMRPLYESSKILAQKMTVAALRHVRQIAQETSGEVQYGGGRQPAVLRTFSQRLCRGFNDAVNGFVDDGWSPMGSDGAEDVTVMINLSPGKFGGSQYGNSFLPSFGSGVLCAKASMLLQNVPPAVLVRFLREHRSEWADYGVDAYAAASLRASPFAVPCARAGGFPSNQVILPLAQTVEHEESLEVVRLEGHAYSPEDMGLARDMYLLQLCSGVDENVVGGCAQLVFAPIDESFADDAPLLPSGFRIIPLEQKSTPNGASANRTLDLASALEGSTRQAGEADPNGCNFRSVLTIAFQFTFDNHSRDSVASMARQYVRSIVGSIQRVALAIAPRPGSNISPISVPTSPEALTLVRWISRSYSLHTGADLFGSDSQTSGDTLLHQLWNHSDAILCCSLKTNASPVFTFANQTGLDMLETTLVALQDIMLDKTLDEPGRKALCSEFPKIMQQGYAHLPAGVCASSMGRMVSYEQATVWKVLEDDESNHCLAFMFVNWSFV | 2
PHB-Delta, YFP-tagged (PHB with the START domain replaced by the 21-nt miR166 recognition site) (natural protein) MMMVHSMSRDMMNRESPDKGLDSGKYVRYTPEQVEALERVYTECPKPSSLRRQQLIRECPILSNIEPKQIKVWFQNRRCREKQRKEAARLQTVNRKLNAMNKLLMEENDRLQKQVSNLVYENGHMKHQLHTASGTTTDNSCESVVVSGQQHQQQNPNPQHQQRDAGMKPGPDVRQIAQETSGEVQYGGGRQPAVLRTFSQRLCRGFNDAVNGFVDDGWSPMGSDGAEDVTVMINLSPGKFGGSQYGNSFLPSFGSGVLCAKASMLLQNVPPAVLVRFLREHRSEWADYGVDAYAAASLRASPFAVPCARAGGFPSNQVILPLAQTVEHEESLEVVRLEGHAYSPEDMGLARDMYLLQLCSGVDENVVGGCAQLVFAPIDESFADDAPLLPSGFRIIPLEQKSTPNGASANRTLDLASALEGSTRQAGEADPNGCNFRSVLTIAFQFTFDNHSRDSVASMARQYVRSIVGSIQRVALAIAPRPGSNISPISVPTSPEALTLVRWISRSYSLHTGADLFGSDSQTSGDTLLHQLWNHSDAILCCSLKTNASPVFTFANQTGLDMLETTLVALQDIMLDKTLDEPGRKALCSEFPKIMQQGYAHLPAGVCASSMGRMVSYEQATVWKVLEDDESNHCLAFMFVNWSFV | 2
